Kd data for two molecules are collected here from patent US20230272045A1 (published 2023).

What all share (assay): ELISA
For orientation: In an ELISA, binding on a coated surface is turned into a signal by an enzyme label.

The target of one assay is human tenascin C (human, UniProt P24821 23-2201).
Assay [1] has as its target T1, human plasma fibronectin (human, UniProt P02751 32-2296).
A further assay addresses T2, human fibrinogen (human, UniProt P02671 20-644; P02675 31-491; P02679 27-437).
T2 chain 1: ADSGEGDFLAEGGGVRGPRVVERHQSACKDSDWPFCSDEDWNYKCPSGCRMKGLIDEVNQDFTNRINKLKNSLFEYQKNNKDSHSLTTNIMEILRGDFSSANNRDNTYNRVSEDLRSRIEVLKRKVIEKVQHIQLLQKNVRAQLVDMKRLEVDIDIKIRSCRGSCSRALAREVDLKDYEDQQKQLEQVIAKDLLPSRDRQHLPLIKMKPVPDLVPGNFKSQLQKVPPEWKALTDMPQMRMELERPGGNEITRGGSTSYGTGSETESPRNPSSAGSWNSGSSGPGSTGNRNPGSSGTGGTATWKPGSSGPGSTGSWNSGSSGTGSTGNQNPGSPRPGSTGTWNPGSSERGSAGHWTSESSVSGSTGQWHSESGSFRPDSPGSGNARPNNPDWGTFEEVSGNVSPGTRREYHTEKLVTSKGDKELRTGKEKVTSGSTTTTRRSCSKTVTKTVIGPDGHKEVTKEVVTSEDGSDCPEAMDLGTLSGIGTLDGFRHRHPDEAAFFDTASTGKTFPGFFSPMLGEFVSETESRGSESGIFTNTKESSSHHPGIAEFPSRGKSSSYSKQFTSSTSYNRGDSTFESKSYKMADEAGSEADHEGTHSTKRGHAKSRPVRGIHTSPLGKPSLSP
T2 chain 2: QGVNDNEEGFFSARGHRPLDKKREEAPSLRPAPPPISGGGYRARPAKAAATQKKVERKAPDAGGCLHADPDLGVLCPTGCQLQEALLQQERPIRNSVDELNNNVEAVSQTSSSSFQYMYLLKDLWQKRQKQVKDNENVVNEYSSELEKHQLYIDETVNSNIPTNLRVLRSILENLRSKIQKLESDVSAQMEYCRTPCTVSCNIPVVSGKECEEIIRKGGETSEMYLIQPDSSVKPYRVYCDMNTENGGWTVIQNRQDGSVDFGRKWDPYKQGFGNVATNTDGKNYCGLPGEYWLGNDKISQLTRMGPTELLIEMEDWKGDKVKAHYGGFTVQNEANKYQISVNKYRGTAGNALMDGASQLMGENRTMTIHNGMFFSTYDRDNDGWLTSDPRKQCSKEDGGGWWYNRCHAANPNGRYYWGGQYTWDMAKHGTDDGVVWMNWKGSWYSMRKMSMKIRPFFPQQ
T2 chain 3: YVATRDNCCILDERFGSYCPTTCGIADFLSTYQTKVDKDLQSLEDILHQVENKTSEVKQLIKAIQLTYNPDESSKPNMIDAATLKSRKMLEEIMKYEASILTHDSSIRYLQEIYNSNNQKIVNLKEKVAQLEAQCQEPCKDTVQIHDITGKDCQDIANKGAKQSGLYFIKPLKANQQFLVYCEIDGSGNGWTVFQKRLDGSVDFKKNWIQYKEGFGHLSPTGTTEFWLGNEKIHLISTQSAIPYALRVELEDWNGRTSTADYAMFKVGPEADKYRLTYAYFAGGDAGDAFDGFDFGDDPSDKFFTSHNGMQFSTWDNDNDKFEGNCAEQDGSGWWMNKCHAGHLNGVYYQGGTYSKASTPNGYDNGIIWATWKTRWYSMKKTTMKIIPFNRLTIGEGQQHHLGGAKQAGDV

The target of assay [2] is T3, human vitronectin (human, UniProt P04004 20-478).
T3 chain: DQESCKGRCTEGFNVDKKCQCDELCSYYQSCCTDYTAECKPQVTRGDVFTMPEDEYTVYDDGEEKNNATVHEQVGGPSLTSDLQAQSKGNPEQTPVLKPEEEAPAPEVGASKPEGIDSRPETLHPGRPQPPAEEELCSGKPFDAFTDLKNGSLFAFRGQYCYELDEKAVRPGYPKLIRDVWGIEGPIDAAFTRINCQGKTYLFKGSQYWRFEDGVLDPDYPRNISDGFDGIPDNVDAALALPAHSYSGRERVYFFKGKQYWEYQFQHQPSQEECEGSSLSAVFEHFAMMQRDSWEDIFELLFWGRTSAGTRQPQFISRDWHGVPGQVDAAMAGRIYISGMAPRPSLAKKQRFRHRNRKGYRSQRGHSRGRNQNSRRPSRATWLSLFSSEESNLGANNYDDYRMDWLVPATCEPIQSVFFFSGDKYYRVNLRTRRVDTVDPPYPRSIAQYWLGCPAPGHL

In assay [3] the target is T1, human plasma fibronectin. This is another data set of the same source.
Assay [4] deals with T3, human vitronectin.

Read-outs that look alike come from different tables or passages of the source.

T1 sequence (P02751 other isoform, or with tags, fused parts or gaps): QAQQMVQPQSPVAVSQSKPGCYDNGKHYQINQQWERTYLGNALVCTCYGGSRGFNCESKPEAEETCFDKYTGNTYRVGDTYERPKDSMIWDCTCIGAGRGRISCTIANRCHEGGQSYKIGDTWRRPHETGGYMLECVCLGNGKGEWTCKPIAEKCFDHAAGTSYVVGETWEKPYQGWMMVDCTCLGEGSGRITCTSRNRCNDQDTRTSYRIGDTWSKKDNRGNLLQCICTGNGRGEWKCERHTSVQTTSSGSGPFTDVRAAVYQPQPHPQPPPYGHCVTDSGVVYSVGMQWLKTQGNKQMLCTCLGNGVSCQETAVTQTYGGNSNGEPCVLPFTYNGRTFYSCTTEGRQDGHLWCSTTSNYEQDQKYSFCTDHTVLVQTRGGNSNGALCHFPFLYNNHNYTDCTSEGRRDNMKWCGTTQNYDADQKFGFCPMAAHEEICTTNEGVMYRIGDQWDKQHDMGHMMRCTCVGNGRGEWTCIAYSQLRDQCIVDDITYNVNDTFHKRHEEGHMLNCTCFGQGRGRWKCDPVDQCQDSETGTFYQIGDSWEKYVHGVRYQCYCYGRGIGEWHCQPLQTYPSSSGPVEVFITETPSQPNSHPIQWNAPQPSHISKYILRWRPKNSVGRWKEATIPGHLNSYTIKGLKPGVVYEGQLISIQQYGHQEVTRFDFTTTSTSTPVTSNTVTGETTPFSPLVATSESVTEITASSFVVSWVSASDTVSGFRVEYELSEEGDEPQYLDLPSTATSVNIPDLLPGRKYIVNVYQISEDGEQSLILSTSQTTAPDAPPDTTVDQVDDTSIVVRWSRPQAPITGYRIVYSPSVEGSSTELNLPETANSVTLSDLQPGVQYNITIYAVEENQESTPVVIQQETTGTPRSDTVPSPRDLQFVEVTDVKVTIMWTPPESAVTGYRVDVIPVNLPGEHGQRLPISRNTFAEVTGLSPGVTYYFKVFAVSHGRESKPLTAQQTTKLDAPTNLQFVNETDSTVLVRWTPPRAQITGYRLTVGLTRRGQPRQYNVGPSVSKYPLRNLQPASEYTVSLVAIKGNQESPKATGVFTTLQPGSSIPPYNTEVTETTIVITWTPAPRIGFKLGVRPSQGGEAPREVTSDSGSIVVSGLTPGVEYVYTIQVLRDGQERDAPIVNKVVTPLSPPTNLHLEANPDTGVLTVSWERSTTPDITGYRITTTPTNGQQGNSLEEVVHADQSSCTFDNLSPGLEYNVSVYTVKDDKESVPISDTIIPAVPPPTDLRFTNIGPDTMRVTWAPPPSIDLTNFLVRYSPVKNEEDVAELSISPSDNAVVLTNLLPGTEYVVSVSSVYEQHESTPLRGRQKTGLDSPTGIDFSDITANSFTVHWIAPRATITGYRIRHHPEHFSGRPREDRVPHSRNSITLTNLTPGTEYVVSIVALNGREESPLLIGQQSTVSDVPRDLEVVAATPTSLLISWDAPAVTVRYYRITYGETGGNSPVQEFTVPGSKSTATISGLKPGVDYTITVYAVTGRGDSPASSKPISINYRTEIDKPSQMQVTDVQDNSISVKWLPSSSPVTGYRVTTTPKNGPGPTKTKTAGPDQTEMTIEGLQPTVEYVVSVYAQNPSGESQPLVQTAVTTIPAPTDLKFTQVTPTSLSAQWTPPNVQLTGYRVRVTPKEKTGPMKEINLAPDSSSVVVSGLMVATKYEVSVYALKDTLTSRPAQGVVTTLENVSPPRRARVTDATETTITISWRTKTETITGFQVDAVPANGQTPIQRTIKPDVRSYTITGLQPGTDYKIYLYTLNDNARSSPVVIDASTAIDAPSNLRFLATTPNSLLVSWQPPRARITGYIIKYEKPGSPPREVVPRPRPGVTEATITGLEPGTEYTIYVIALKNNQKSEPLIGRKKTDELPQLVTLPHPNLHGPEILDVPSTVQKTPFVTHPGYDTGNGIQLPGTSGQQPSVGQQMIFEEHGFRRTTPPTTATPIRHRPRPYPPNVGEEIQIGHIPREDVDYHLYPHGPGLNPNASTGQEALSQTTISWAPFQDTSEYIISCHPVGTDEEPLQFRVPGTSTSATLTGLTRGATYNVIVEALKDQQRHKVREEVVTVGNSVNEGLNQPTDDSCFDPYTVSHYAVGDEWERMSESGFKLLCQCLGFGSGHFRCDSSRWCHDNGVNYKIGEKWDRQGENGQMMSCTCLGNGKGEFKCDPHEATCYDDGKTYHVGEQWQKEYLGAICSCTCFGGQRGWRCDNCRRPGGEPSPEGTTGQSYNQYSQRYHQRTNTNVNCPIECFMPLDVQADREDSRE
human tenascin C, sequence (P24821 23-2201): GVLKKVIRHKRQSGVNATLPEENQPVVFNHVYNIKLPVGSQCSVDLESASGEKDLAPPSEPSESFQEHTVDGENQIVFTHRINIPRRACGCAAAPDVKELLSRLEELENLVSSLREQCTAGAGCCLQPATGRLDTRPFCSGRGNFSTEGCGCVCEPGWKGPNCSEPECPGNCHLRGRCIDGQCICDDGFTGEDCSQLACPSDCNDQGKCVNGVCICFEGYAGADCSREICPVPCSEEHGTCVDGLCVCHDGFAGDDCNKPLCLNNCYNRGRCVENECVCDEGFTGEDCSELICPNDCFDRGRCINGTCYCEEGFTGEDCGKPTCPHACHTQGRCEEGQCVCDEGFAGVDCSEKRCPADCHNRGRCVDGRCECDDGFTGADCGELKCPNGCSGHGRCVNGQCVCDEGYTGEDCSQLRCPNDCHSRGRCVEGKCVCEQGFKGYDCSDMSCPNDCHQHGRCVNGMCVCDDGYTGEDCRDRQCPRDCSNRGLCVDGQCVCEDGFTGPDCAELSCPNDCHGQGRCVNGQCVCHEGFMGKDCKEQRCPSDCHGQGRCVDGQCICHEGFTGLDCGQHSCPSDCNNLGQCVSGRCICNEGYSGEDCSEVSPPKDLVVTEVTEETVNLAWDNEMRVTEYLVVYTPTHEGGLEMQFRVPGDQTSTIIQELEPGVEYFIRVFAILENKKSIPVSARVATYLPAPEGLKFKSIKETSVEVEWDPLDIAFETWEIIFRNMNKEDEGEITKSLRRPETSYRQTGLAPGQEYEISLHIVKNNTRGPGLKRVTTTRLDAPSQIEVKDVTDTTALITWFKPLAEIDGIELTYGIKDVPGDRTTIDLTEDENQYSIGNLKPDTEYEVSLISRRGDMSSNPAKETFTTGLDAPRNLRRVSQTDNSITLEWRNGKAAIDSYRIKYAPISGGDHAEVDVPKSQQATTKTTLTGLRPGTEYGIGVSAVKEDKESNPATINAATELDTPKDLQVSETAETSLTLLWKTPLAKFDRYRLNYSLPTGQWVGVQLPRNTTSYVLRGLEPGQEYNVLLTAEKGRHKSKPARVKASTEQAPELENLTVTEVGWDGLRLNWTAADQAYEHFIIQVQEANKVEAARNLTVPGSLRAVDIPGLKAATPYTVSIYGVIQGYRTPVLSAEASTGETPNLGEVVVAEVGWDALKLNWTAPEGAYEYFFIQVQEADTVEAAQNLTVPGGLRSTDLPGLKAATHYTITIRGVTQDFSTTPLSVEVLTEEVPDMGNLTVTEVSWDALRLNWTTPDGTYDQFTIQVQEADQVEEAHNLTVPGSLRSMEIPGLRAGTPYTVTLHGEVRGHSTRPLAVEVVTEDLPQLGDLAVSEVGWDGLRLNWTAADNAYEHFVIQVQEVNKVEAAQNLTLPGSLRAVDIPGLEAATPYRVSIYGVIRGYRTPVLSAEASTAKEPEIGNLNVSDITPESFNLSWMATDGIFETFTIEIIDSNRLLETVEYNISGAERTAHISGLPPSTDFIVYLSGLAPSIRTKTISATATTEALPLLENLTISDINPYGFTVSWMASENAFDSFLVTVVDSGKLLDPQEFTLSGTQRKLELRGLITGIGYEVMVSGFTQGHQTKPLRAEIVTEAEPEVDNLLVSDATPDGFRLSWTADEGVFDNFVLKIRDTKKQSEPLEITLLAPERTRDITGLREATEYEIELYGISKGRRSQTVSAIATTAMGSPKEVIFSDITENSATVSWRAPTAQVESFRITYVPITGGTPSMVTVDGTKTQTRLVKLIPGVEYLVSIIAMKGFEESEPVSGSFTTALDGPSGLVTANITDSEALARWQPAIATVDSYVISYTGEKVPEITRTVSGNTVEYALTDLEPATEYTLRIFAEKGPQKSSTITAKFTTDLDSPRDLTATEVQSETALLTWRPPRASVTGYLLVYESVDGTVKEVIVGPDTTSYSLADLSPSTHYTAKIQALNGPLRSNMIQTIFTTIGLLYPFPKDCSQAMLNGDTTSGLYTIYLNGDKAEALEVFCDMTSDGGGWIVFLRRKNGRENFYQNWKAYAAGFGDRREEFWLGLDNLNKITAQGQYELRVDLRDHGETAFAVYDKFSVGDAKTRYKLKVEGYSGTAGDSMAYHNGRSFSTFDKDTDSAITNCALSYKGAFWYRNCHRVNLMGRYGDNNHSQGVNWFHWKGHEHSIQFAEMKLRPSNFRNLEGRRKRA

B1: BMP-2 (bone morphogenetic protein-2, Peprotech) (ligand)
chain: QAKHKQRKRLKSSCKRHPLYVDFSDVGWNDWIVAPPGYHAFYCHGECPFPLADHLNSTNHAIVQTLVNSVNSKIPKACCVPTELSAISMLYLDENEKVVLKNYQDMVVEGCGCR
In the case of B1, the Kd in the assay with human tenascin C was 19.5 nM; with human plasma fibronectin [1], 49.9 nM; in the assay with human fibrinogen, 46.4 nM; with human vitronectin [2], 12.6 nM.

B2: PDGF-BB (murine wild-type platelet-derived growth factor-BB) (ligand)
chain: SLGSLAAAEPAVIAECKTRTEVFQISRNLIDRTNANFLVWPPCVEVQRCSGCCNNRNVQCRASQVQMRPVQVRKIEIVRKKPIFKKATVTLEDHLACKCETIVTPRPVT
As to B2, the Kd with human plasma fibronectin [3] was found to be 60.2 nM; with human vitronectin [4], 29.8 nM.

Broadly, the Kd is the equilibrium constant for the complex coming apart. A low value points to higher affinity.
